The values below come from publication doi:10.1101/2021.02.08.430375v1.

Substrate in the data set: NC(=O)CCCC[C@@H](S)CCS
Kind of data set: purified protein. To be noted: 100 mM Na phosphate, 100 mM KCl, 8 mM TCEP pH 7.6, room temperature.

B1: Lpd (dihydrolipoamide dehydrogenase; lipoamide dehydrogenase) (Escherichia coli K-12) (protein)
chain: MSTEIKTQVVVLGAGPAGYSAAFRCADLGLETVIVERYNTLGGVCLNVGCIPSKALLHVAKVIEEAKALAEHGIVFGEPKTDIDKIRTWKEKVINQLTGGLAGMAKGRKVKVVNGLGKFTGANTLEVEGENGKTVINFDNAIIAAGSRPIQLPFIPHEDPRIWDSTDALELKEVPERLLVMGGGIIGLEMGTVYHALGSQIDVVEMFDQVIPAADKDIVKVFTKRISKKFNLMLETKVTAVEAKEDGIYVTMEGKKAPAEPQRYDAVLVAIGRVPNGKNLDAGKAGVEVDDRGFIRVDKQLRTNVPHIFAIGDIVGQPMLAHKGVHEGHVAAEVIAGKKHYFDPKVIPSIAYTEPEVAWVGLTEKEAKEKGISYETATFPWAASGRAIASDCADGMTKLIFDKESHRVIGGAIVGTNGGELLGEIGLAIEMGCDAEDIALTIHAHPTLHESVGLAAEVFEGSITDLPNPKAKKK
For B1, the Michaelis-Menten constant (Km) was 180 ± 20 µM.

As a reminder, the Km is the substrate concentration at which the rate is half of its maximum.
